The Human Domainome abundance scans (Beltran et al. 2025)
± gives the uncertainty stated by the source.

B1: Serine/threonine-protein kinase A-Raf, residues 21 to 89; numbered along this chain, P10398 (parent)
chain: VKVYLPNKQRTVVTVRDGMSVYDSLDKALKVRGLNQDCCVVYRLIKGRKTVTAWDTAIAPLDGEELIVE

Variants of: B1
Assay: abundance fitness (aPCA) (normalised: wild type 0, dead -1); higher = more abundant; growth selection in yeast, the domain comes from the species named
Details: Homo sapiens
In the case of VKVYLPNKQRTVVTVRDGMSVYDSSDKALKVRGLNQDCCVVYRLIKGRKTVTAWDTAIAPLDGEELIVE, the abundance fitness is reported as -0.891 ± 0.11. For VKVYLPNKQRTVVTVRDGMSVYDSQDKALKVRGLNQDCCVVYRLIKGRKTVTAWDTAIAPLDGEELIVE, the abundance fitness was -0.961 ± 0.17. With VKVYLPNKQRTVVTVRDGMSVYDSEDKALKVRGLNQDCCVVYRLIKGRKTVTAWDTAIAPLDGEELIVE the abundance fitness was -0.944 ± 0.18. Work on VKVYLPNKQRTVVTVRDGMSVYDSDDKALKVRGLNQDCCVVYRLIKGRKTVTAWDTAIAPLDGEELIVE yielded an abundance fitness of -0.717 ± 0.11. With VKVYLPNKQRTVVTVRDGMSVYDSRDKALKVRGLNQDCCVVYRLIKGRKTVTAWDTAIAPLDGEELIVE the abundance fitness was -0.924 ± 0.082. VKVYLPNKQRTVVTVRDGMSVYDSHDKALKVRGLNQDCCVVYRLIKGRKTVTAWDTAIAPLDGEELIVE showed an abundance fitness of -1.06 ± 0.14. VKVYLPNKQRTVVTVRDGMSVYDSADKALKVRGLNQDCCVVYRLIKGRKTVTAWDTAIAPLDGEELIVE gave an abundance fitness of -0.919 ± 0.12. VKVYLPNKQRTVVTVRDGMSVYDSVDKALKVRGLNQDCCVVYRLIKGRKTVTAWDTAIAPLDGEELIVE showed an abundance fitness of -0.54 ± 0.052. In the case of VKVYLPNKQRTVVTVRDGMSVYDSCDKALKVRGLNQDCCVVYRLIKGRKTVTAWDTAIAPLDGEELIVE, the abundance fitness is reported as -0.427 ± 0.18. Variant VKVYLPNKQRTVVTVRDGMSVYDSWDKALKVRGLNQDCCVVYRLIKGRKTVTAWDTAIAPLDGEELIVE has an abundance fitness of -0.971 ± 0.19. Work on VKVYLPNKQRTVVTVRDGMSVYDSIDKALKVRGLNQDCCVVYRLIKGRKTVTAWDTAIAPLDGEELIVE yielded an abundance fitness of -0.573 ± 0.17. With VKVYLPNKQRTVVTVRDGMSVYDSLAKALKVRGLNQDCCVVYRLIKGRKTVTAWDTAIAPLDGEELIVE the abundance fitness was 0.069 ± 0.071. In the case of VKVYLPNKQRTVVTVRDGMSVYDSLCKALKVRGLNQDCCVVYRLIKGRKTVTAWDTAIAPLDGEELIVE, the abundance fitness is reported as 0.063 ± 0.099. Work on VKVYLPNKQRTVVTVRDGMSVYDSLGKALKVRGLNQDCCVVYRLIKGRKTVTAWDTAIAPLDGEELIVE yielded an abundance fitness of -0.1 ± 0.047. In the case of VKVYLPNKQRTVVTVRDGMSVYDSLPKALKVRGLNQDCCVVYRLIKGRKTVTAWDTAIAPLDGEELIVE, the abundance fitness is reported as -0.977 ± 0.22. VKVYLPNKQRTVVTVRDGMSVYDSLHKALKVRGLNQDCCVVYRLIKGRKTVTAWDTAIAPLDGEELIVE gave an abundance fitness of -0.096 ± 0.23. VKVYLPNKQRTVVTVRDGMSVYDSLKKALKVRGLNQDCCVVYRLIKGRKTVTAWDTAIAPLDGEELIVE gave an abundance fitness of -0.076 ± 0.083. For VKVYLPNKQRTVVTVRDGMSVYDSLMKALKVRGLNQDCCVVYRLIKGRKTVTAWDTAIAPLDGEELIVE, the abundance fitness was -0.119 ± 0.063. For VKVYLPNKQRTVVTVRDGMSVYDSLEKALKVRGLNQDCCVVYRLIKGRKTVTAWDTAIAPLDGEELIVE, the abundance fitness was 0.04 ± 0.093. VKVYLPNKQRTVVTVRDGMSVYDSLIKALKVRGLNQDCCVVYRLIKGRKTVTAWDTAIAPLDGEELIVE gave an abundance fitness of -0.146 ± 0.09. With VKVYLPNKQRTVVTVRDGMSVYDSLLKALKVRGLNQDCCVVYRLIKGRKTVTAWDTAIAPLDGEELIVE the abundance fitness was -0.137 ± 0.053. VKVYLPNKQRTVVTVRDGMSVYDCLDKALKVRGLNQDCCVVYRLIKGRKTVTAWDTAIAPLDGEELIVE gave an abundance fitness of 0.11 ± 0.093. For VKVYLPNKQRTVVTVRDGMSVYDTLDKALKVRGLNQDCCVVYRLIKGRKTVTAWDTAIAPLDGEELIVE, the abundance fitness was -0.025 ± 0.046. With VKVYLPNKQRTVVTVRDGMSVYDKLDKALKVRGLNQDCCVVYRLIKGRKTVTAWDTAIAPLDGEELIVE the abundance fitness was -0.912 ± 0.17. In the case of VKVYLPNKQRTVVTVRDGMSVYDRLDKALKVRGLNQDCCVVYRLIKGRKTVTAWDTAIAPLDGEELIVE, the abundance fitness is reported as -0.914 ± 0.091. Work on VKVYLPNKQRTVVTVRDGMSVYDVLDKALKVRGLNQDCCVVYRLIKGRKTVTAWDTAIAPLDGEELIVE yielded an abundance fitness of 0.031 ± 0.05. VKVYLPNKQRTVVTVRDGMSVYDILDKALKVRGLNQDCCVVYRLIKGRKTVTAWDTAIAPLDGEELIVE showed an abundance fitness of 0.027 ± 0.12. VKVYLPNKQRTVVTVRDGMSVYDDLDKALKVRGLNQDCCVVYRLIKGRKTVTAWDTAIAPLDGEELIVE showed an abundance fitness of -0.887 ± 0.076. VKVYLPNKQRTVVTVRDGMSVYDYLDKALKVRGLNQDCCVVYRLIKGRKTVTAWDTAIAPLDGEELIVE gave an abundance fitness of -0.487 ± 0.34. Work on VKVYLPNKQRTVVTVRDGMSVYDGLDKALKVRGLNQDCCVVYRLIKGRKTVTAWDTAIAPLDGEELIVE yielded an abundance fitness of 0.149 ± 0.049. VKVYLPNKQRTVVTVRDGMSVYDMLDKALKVRGLNQDCCVVYRLIKGRKTVTAWDTAIAPLDGEELIVE showed an abundance fitness of -0.04 ± 0.075. VKVYLPNKQRTVVTVRDGMSVYDHLDKALKVRGLNQDCCVVYRLIKGRKTVTAWDTAIAPLDGEELIVE gave an abundance fitness of -0.949 ± 0.3. With VKVYLPNKQRTVVTVRDGMSVYDQLDKALKVRGLNQDCCVVYRLIKGRKTVTAWDTAIAPLDGEELIVE the abundance fitness was -0.411 ± 0.071. VKVYLPNKQRTVVTVRDGMSVYDFLDKALKVRGLNQDCCVVYRLIKGRKTVTAWDTAIAPLDGEELIVE gave an abundance fitness of -0.349 ± 0.087. With VKVYLPNKQRTVVTVRDGMSVYDPLDKALKVRGLNQDCCVVYRLIKGRKTVTAWDTAIAPLDGEELIVE the abundance fitness was -0.896 ± 0.21. For VKVYLPNKQRTVVTVRDGMSVYDNLDKALKVRGLNQDCCVVYRLIKGRKTVTAWDTAIAPLDGEELIVE, the abundance fitness was -0.469 ± 0.23. For VKVYLPNKQRTVVTVRDGMSVYDALDKALKVRGLNQDCCVVYRLIKGRKTVTAWDTAIAPLDGEELIVE, the abundance fitness was 0.174 ± 0.042. Work on VKVYLPNKQRTVVTVRDGMSVYDELDKALKVRGLNQDCCVVYRLIKGRKTVTAWDTAIAPLDGEELIVE yielded an abundance fitness of -0.652 ± 0.11. VKVYLPNKQRTVVTVRDGMSVYDWLDKALKVRGLNQDCCVVYRLIKGRKTVTAWDTAIAPLDGEELIVE showed an abundance fitness of -0.35 ± 0.061.
